Measurements as given in US20210017269A1 (GlaxoSmithKline, published 2021).
Each block holds one binder with its values, some of them ahead of it.

What was measured:
[1] = biological target: T1, human IL-5 (recombinant) (human, UniProt P05113 20-134); assay: cell-based or functional assay
[2] = biological target: T1, human IL-5 (recombinant); assay: SPR Biacore 4000, 25 °C, antibody captured on protein A, human IL-5 as analyte
[3] = biological target: T2, human neonatal Fc receptor (FcRn) (human, UniProt P55899 24-297; P61769 21-119, limits assumed); assay: SPR Biacore T200, 37 °C, pH 6.0, antibody captured on immobilised IL-5, FcRn as analyte
T2 construct: Recombinant human FcRn; also called human FcRn; recombinant human neonatal receptor
Description: (§1) Table 17 legend/description: Comparison of binding affinity of 28Y042-7F11-1 and mepolizumab for human FcRn at pH 6.0 and pH 7.4.
(§2) The binding affinity of 28Y042-7F11-1 and mepolizumab to human FcRn at pH 6.0 and pH 7.4 was assessed using a BIACORE T200 instrument at 37° C. Human recombinant IL-5 was diluted in acetate buffer pH 5.0 and immobilised to a level of 535 RU by amine coupling on to a CMS chip (GE, BR100530). 28Y042-7F11-1 or mepolizumab were captured by flowing (5 μl/min) a 100 nM solution of either mAb in HBS-EP (Teknova, H8022) buffer for 24 seconds over the chip surface. Following capture of the antibody via the immobilised IL-5, cycles of varying concentrations (0.5 μM to 32 μM) of human FcRn were flowed over the chip surface at 5 μ1/min for 120 seconds contact time followed by 80 seconds dissociation for each cycle. At the completion of each cycle, the chip surface was regenerated using 10 mM Glycine pH 1.5 for 5 seconds at 50 μ1/min followed by 10mM NaOH for 5 seconds at 50 μl/min. FcRn cycles were performed for each concentration at pH 6.0 (HBS-EP+, Teknova, Cat: H8022, pH 6.0) and pH 7.4 (HBS-EP). A molecular weight of 42929 Da for human FcRn was used in the calculations.

[4] = biological target: T1, human IL-5 (recombinant); assay: SPR Biacore T200, 37 °C
[5] = biological target: T3, cynomolgus IL-5 (cynomolgus); assay: SPR Biacore T200, 37 °C
T3 construct: also called cyno IL-5

[6] = biological target: T2, human neonatal Fc receptor (FcRn); assay: ProteOn SPR, human FcRn, pH 6.0
[7] = biological target: T2, human neonatal Fc receptor (FcRn); assay: SPR Biacore T200, 37 °C, pH 6.0
Description: as §1, §2

[8] = biological target: T2, human neonatal Fc receptor (FcRn); assay: ProteOn SPR, human FcRn, pH 6.0; remark: listed apart in the source
[9] = biological target: T2, human neonatal Fc receptor (FcRn); assay: ProteOn SPR, human FcRn, pH 7.4
[10] = biological target: T1, human IL-5 (recombinant); assay: KinExA solution phase affinity, 25 °C
Description: Kinetic analyses were performed to compare 28Y042-7F11-1, mepolizumab, and GSK3559090A (a comparator IgG1 anti-IL-5 mAb molecule based). Due to the high affinity of 28Y042-7F11-1, it was not possible to accurately determine the dissociation rate by Biacore 4000 at 25° C.; therefore KINEXA analysis was used to calculate an accurate affinity for 28Y042-7F11-1 binding to human IL-5 at 25° C.
Solution phase affinity measurements were made using Sapidyne's KINEXA 3200 instrument. The method relied on the detection of free antibody at equilibrium in a titrated series of antigen concentrations. For detection, a bead matrix was created using NHS-activated SEPHEROSE beads (GE Healthcare, 17-0906-01) coated with human IL-5. For affinity determination, a fixed concentration of antibody was incubated with a dilution series of human IL-5 concentrations and binding was allowed to reach equilibrium before the samples were run on the KINEXA 3200 instrument. Each solution was passed over an aliquot of the antigen beads where free antibody bound to the antigen coated beads and was detected using an anti-human IgG antibody (DYLIGHT 649-AFFINIPURE F(ab′)2 fragment goat anti-human IgG; Jackoson Immunoresearch, 109-496-170), with fresh antigen beads used to measure each sample.

[11] = biological target: T4, human complement component C1q (human, UniProt P02745 23-245; P02746 28-253; P02747 29-245); assay: ProteOn XPR36 SPR, antibody immobilised, C1q as analyte, equilibrium model
T4 construct: C1q from Sigma (C1740); also called human recombinant soluble complement C1q
T4 sequence (P02745 23-245 limits assumed, chain 1 of 3): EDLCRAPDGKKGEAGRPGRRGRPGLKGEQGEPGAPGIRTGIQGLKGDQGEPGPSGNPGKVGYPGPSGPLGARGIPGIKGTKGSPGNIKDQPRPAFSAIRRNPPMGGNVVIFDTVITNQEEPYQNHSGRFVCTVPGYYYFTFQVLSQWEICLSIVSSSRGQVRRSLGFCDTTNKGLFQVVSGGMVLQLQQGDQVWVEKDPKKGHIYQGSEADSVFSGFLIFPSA
T4 sequence (P02746 28-253 limits assumed, chain 2 of 3): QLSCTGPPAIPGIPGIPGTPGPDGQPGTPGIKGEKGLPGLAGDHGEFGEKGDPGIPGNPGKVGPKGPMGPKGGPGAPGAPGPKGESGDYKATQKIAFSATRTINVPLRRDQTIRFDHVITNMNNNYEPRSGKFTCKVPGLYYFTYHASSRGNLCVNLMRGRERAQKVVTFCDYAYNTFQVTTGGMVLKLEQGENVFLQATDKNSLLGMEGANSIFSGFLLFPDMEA
T4 sequence (P02747 29-245 limits assumed, chain 3 of 3): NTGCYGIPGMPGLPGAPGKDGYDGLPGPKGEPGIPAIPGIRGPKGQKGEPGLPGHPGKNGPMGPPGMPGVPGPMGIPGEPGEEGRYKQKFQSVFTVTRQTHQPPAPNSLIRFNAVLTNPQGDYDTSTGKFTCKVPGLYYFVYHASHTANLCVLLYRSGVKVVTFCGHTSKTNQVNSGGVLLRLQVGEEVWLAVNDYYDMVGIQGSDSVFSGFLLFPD
Description: Binding of 28Y042-7F11-1 to human recombinant soluble complement C1q was assessed using the PROTEOn XPR36 (BioRad™) biosensor instrument. A control antibody containing the YTE change to its Fc region was included as a control.
The antibodies to be tested were immobilised on a GLC chip (Bio-Rad, 176-5011) by primary amine coupling (GE Healthcare, BR-1000-50). Recombinant C1q (Sigma, C1740) was passed over the immobilised antibodies at 512 nM, 128 nM, 32 nM, 8 nM, 2 nM and 0 nM (i.e., buffer alone) and a blank activated and deactivated flow cell was used to double reference binding curves. The running buffer for binding analysis was HBS-EP (pH7.4, Teknova, H8022) with 10 mM CaCl₂. Data were fitted to the equilibrium model, inherent to the PROTEON XPR36 (BioRad™) analysis software using a global R-max value.

[12] = biological target: T2, human neonatal Fc receptor (FcRn); assay: SPR Biacore T200, 37 °C, pH 7.4, antibody captured on immobilised IL-5, FcRn as analyte
Description: as §1, §2

IC50 of inhibition of human IL-5 induced TF-1 cell proliferation [1]: 105 pM
Kd [2]: 0.123 nM
Kd [3]: 2080 nM
B1: mepolizumab (antibody)
chain 1: not shown
chain 2: not shown

IC50 in the TF-1 cell assay after thermal stress (1 week at 40 °C in acetate or phosphate buffer) [1]: 4 to 5 pM
IC50 of inhibition of human IL-5 induced TF-1 cell proliferation [1]: 4 pM
fold improvement in TF-1 cell assay potency compared to mepolizumab [1]: ~30 fold
Kd [4]: 0.0391 nM
Kd [5]: 0.0239 nM
fold increase in affinity compared to the human IgG1 wild type control [6]: ~3 fold
fold increase in affinity compared to mepolizumab [7]: ~13 fold
Kd [8]: 130 nM
Kd [9]: 2650 nM
Kd [10]: 0.0105 nM
Kd [11]: 750 nM
Kd [3]: 157 nM
Kd [12]: 16.2 µM
B2: 28Y042-7F11-1 (antibody, human IgG1, kappa)
heavy: QVTLRESGPALVKPTQTLTLTCTVSGFSLTGSSVHWVRQPPGKGLEWLGVIWASGGTDYNSALMSRLSISKDTSRNQVVLTMTNMDPVDTATYYCARDPPSGLLRLDYWGRGTLVTVSSASTKGPSVFPLAPSSKSTSGGTAALGCLVKDYFPEPVTVSWNSGALTSGVHTFPAVLQSSGLYSLSSVVTVPSSSLGTQTYICNVNHKPSNTKVDKRVEPKSCDKTHTCPPCPAPELLGGPSVFLFPPKPKDTLYITREPEVTCVVVDVSHEDPEVKFNWYVDGVEVHNAKTKPREEQYNSTYRVVSVLTVLHQDWLNGKEYKCKVSNKALPAPIEKTISKAKGQPREPQVYTLPPSREEMTKNQVSLTCLVKGFYPSDIAVEWESNGQPENNYKTTPPVLDSDGSFFLYSKLTVDKSRWQQGNVFSCSVMHEALHNHYTQKSLSLSPGK
light: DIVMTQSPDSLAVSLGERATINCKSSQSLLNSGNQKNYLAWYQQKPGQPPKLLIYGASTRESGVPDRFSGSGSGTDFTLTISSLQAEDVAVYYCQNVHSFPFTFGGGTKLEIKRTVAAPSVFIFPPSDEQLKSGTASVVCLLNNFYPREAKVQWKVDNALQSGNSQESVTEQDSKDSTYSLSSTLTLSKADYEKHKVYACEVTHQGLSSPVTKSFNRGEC
notes: Recombinant humanized monoclonal antibody, IgG1 kappa, two heavy and two light chains; also called GSK3511294
